Laboratory results taken from patent US20110214193A1, “BIOMARKER FOR MICRODOMAIN DISEASE” (SUMITOMO CHEMICAL COMPANY, LIMITED, priority 2008, published 2011).

Columns and labels:
Assay type in all cases: cell-based
[1] = test system: differentiated mouse adipocyte cell line 3T3-L1; assay: Enhancing action by anti-GM2A antibody and ligand on glucose uptake (2-deoxyglucose incorporation)
Procedure: (§1) Mouse adipocyte cell line 3T3-L1 was purchased from Health Science Research Resources Bank. Cells of the purchased mouse adipocyte cell line […] were cultured in a D-MEM containing 10% fetal bovine serum (hereinafter referred to as D-MEM (10)) at 37° C. under an atmosphere of 5% CO2. The cultured cells were plated on a 6-well plate. Two days after becoming confluent, the culture solution was exchanged for a pre-differentiation culture solution (D-MEM (10) containing 1 μg/ml insulin, 0.5 mM 3-isobutyl-1-methylxanthine, and 1 μM dexamethasone), and the culture was further cultured for another 4 days. […] Here, the protein concentration of the specimen was measured using BCA Protein Assay Reagent (catalogue No. 23228, Pierce) using bovine serum albumin as a standard protein.
The amount of 2-deoxyglucose in the specimen was quantitatively determined according to the following method. To a plate for fluorescence measurement, were added 100 μl of an assay buffer (50 mM triethanolamine (pH 8.1), 50 mM KCl, 0.5 mM MgCl2, 0.02% bovine serum albumin, 670 μM ATP, 0.12 μM NADP^+, 25 μM resazurin, 5.5 units/ml hexokinase, 16 units/ml G6PDH, 1 units/ml diaphorase) and 100 μl of the specimen. After keeping the obtained mixture at 37° C. for 90 minutes, the fluorescence intensity of the obtained mixture was measured (excitation wavelength: 530 nm, detection wavelength: 595 nm). […]

[2] = test system: undifferentiated mouse skeletal muscle cell line C2C12; assay: Inhibition by GM2A protein of leptin intracellular signaling (AMPK alpha phosphorylation, Western blot); conditions: for Phosphorylated AMPK alpha/AMPK alpha: Leptin + (0.1 μg/ml, 30 minutes), 24 hours, no leptin = 1.0, leptin alone = 1.9
Procedure: (§2) Mouse skeletal muscle cell line C2C12 (CRL-1772) and rat pheochromocytoma cell line PC12 (CRl-1721) were purchased from ATCC. Cells of the both cell lines were cultured in a D-MEM medium containing 10% inactivated fetal bovine serum (catalogue No. 14247-15, NACALAI TESQUE, INC.) at 37° C. under an atmosphere of 5% CO2. Cells of differentiated mouse skeletal muscle cell line C2C12 were prepared by exchanging the medium for a D-MEM containing 2% inactivated equine serum and culturing the mixture for […].
(§3) Human GM2A protein was prepared as follows. First, a cDNA was prepared from human lung cancer cell line HARA-B (catalogue No. JCRB1080.1, Health Science Research Resources Bank), using oligo(dT). Using the prepared cDNA, a PCR fragment containing the full length of human GM2A gene was obtained. The obtained PCR fragment was inserted into pET24a vector (catalogue No. 69749-3, Novagen), whereby human GM2A/pET24a plasmid was prepared. Next, after human GM2A/pET24a was added to Escherichia coli BL21 (DE3) pLysS (catalogue No. 69451-4, Novagen) to transform the Escherichia coli, the obtained Escherichia coli was cultured on shaking in an LB medium containing 50 μg/ml kanamycin at 37° C. until OD600=about 0.5. Then, after Isopropyl-β-thiogalactopyranoside (catalogue No. 9030, Takara Bio Inc.) was added to the obtained culture so that the final concentration could be 0.5 mM, the culture was further cultured on shaking at 18° C. for 3 hours. Bacterial cells were collected by centrifuging the obtained culture, and the collected bacterial cells were sonicated. Then, the obtained homogenate was centrifuged at 11,000 rpm for 30 minutes. After Ni-NTA agarose (catalogue No. 1018244, Qiagen) was added to the obtained supernatant and left at 4° C. for 2 hours, the obtained left object was washed 5 times. From the obtained washed object, an elution fraction of a protein was obtained by elution of a protein with 250 mM imidazole. The obtained elution fraction was purified by anion exchange chromatography HiTrapQ HP, whereby human GM2A protein was prepared. […]

[3] = test system: differentiated mouse skeletal muscle cell line C2C12; assay: Inhibition by GM2A protein of insulin intracellular signaling (Akt phosphorylation, Western blot); conditions: for Phosphorylated Akt/Akt: Insulin + (1 μg/ml, 10 minutes), 24 hours, no insulin = 1.0, insulin alone = 2.1
Procedure: as §2, §3

[4] = test system: rat pheochromocytoma cell line PC12; assay: Inhibition by GM2A protein of NGF intracellular signaling (Akt phosphorylation, Western blot); conditions: for Phosphorylated Akt/Akt: NGF + (0.1 μg/ml, 10 minutes), 24 hours, no NGF = 1.0, NGF alone = 1.8
Procedure: as §2, §3

[5] = test system: mouse adipocyte cell line 3T3-L1; assay: Inhibitory action by GM2A protein on glucose uptake (2-deoxyglucose incorporation); conditions: for Amount of 2-Deoxyglucose: relative value per amount of protein, Insulin +, no insulin = 100, insulin alone = 215
Procedure: as §1, with “days. Next, after the pre-differentiation culture solution was exchanged for a post-differentiation culture solution (D-MEM (10) containing 1 insulin) and the culture was cultured for 3 days, the culture solution was exchanged for a D-MEM (10) containing mouse GM2A protein, and the culture was further cultured for another day.” for “days.”
The amount of 2-deoxyglucose in the specimen was quantitatively determined according to the following method. To a plate for fluorescence measurement, were added 100 μl of an assay buffer (50 mM triethanolamine (pH 8.1), 50 mM KCl, 0.5 mM MgCl2, 0.02% bovine serum albumin, 670 μM ATP, 0.12 μM NADP^+, 25 μM resazurin, 5.5 units/ml hexokinase, 16 units/ml G6PDH, 1 units/ml diaphorase) and 100 μl of the specimen. After keeping the obtained mixture at 37° C. for 90 minutes, the fluorescence intensity of the obtained mixture was measured (excitation wavelength: 530 nm, detection wavelength: 595 nm). A calibration curve was created using 2-deoxyglucose of 500 μM, 250 μM, 125 μM and 0 μM (purified water) as a standard, and quantitative determination was carried out on the basis of the calibration curve. The amount of 2-deoxyglucose incorporated into a cell per the amount of protein of the specimen was calculated as a relative value.

[6] = concentration-dependent, 2 and 4 μg/ml

Molecule: ganglioside GM2
- intracellular incorporation of 2-deoxyglucose [1]: enhanced
- Amount of 2-Deoxyglucose ([1]; relative value, 1 μM, 1 day, DMSO = 100): 120

B1: GM2AP: Human GM2A protein expressed in Escherichia coli from human GM2A/pET24a, purified by Ni-NTA agarose and anion exchange chromatography (protein)
chain: HLKKPSQLSSFSWDNCDEGKDPAVIRSLTLEPDPIIVPGNVTLSVMGSTSVPLSSPLKVDLVLEKEVAGLWIKIPCTDYIGSCTFEHFCDVLDMLIPTGEPCPEPLRTYGLPCHCPFKEGTYSLPKSEFVVPDLELPSWLTTGNYRIESVLSSSGKRLGCIKIAASLKGI
- Phosphorylated AMPK alpha/AMPK alpha ([2]; GM2AP 2 μg/ml): 1.0
- Phosphorylated AMPK alpha/AMPK alpha ([2]; GM2AP 4 μg/ml): 0.9
- Phosphorylated Akt/Akt ([3]; GM2AP 2 μg/ml): 1.8
- Phosphorylated Akt/Akt ([3]; GM2AP 4 μg/ml): 1.2
- Phosphorylated Akt/Akt ([4]; GM2AP 2 μg/ml): 1.5
- Phosphorylated Akt/Akt ([4]; GM2AP 4 μg/ml): 1.4

B2: GM2A Protein: mouse GM2A protein added to the culture solution of 3T3-L1 cells in Example 8 (protein)
chain: ARLVPKRLSQLGGFSWDNCDEGKDPAVIKSLTIQPDPIVVPGDVVVSLEGKTSVPLTAPQKVELTVEKEVAGFWVKIPCVEQLGSCSYENICDLIDEYIPPGESCPEPLHTYGLPCHCPFKEGTYSLPTSNFTVPDLELPSWLSTGNYRIQSILSSGGKRLGCIKIAASLKGR
- intracellular signaling of leptin [2, 6]: inhibited
- intracellular signaling of insulin [3, 6]: inhibited
- intracellular signaling of NGF [4, 6]: inhibited
- enhancing action by insulin on intracellular incorporation of 2-deoxyglucose ([5]; concentration-dependent, 2 and 10 μg/ml): inhibited
- Amount of 2-Deoxyglucose ([5]; GM2A Protein 2 μg/ml): 184
- Amount of 2-Deoxyglucose ([5]; GM2A Protein 10 μg/ml): 156
